In patent US6174679:

Biological target: T1, CIF150/hTAFII150 (Homo sapiens) (UniProt Q6P1X5)
T1 sequence: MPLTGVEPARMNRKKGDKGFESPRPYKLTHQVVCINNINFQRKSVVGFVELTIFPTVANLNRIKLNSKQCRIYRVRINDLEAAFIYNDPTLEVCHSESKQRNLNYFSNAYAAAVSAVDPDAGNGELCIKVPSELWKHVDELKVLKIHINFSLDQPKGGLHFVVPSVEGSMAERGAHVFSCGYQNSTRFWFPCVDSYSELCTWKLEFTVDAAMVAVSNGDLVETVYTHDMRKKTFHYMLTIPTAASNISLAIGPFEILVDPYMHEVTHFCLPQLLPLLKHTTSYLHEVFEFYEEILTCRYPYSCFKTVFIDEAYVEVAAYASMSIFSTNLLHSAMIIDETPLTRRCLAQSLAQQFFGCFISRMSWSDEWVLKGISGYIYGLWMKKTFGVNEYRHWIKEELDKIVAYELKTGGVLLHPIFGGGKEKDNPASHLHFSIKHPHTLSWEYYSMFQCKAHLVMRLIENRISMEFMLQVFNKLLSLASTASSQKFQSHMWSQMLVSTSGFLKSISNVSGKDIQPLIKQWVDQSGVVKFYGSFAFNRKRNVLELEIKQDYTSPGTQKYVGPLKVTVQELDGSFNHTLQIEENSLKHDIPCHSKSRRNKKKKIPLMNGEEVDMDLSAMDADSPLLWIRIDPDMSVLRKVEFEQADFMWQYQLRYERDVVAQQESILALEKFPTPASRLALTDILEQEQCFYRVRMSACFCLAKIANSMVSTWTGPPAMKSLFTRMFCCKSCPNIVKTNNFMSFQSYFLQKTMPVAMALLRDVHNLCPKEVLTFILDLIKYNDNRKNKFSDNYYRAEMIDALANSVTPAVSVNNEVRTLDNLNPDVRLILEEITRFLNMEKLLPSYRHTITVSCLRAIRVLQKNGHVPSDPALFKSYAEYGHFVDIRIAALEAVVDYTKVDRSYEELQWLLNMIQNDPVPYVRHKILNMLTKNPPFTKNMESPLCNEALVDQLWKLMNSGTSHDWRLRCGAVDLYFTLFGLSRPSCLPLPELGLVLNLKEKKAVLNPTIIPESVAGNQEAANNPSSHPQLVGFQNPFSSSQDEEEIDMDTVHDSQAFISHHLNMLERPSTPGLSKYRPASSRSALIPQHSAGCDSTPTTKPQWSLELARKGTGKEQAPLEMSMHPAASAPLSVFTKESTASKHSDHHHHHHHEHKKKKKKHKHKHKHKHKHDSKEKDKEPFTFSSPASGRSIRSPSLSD
Experiment: EMSA
Settings: affinity improvement after selection (text gives both three and four rounds); dGdC competitor; supershifted by anti-CIF150 serum

## GAG (double strand) [selected CBE fragments with GAG core]
  binding signal: 5 fold
